Assay [1] addresses HLA-B*58:01. As to the kind of experiment: IEDB peptide-MHC binding, purified MHC/competitive/radioactivity; filed as Kd, often an IC50 or EC50 that approximates it; ≥ and ≤ were set here for values at or beyond the usual limits of such assays.
Assay [2] concerns the target HLA-A*01:01. The description is as above.
For assay [3], the target named is HLA-B*57:01. The description is as above.
For assay [4], the target named is HLA-B*15:17. Briefly: IEDB peptide-MHC binding, purified MHC/direct/fluorescence; filed as Kd, often an IC50 or EC50 that approximates it; ≥ and ≤ were set here for values at or beyond the usual limits of such assays.
Assay [5] addresses HLA-B*58:01. The assay is described as above.
For assay [6], the target named is HLA-B*57:01. The assay is described as above.
Assay [7] addresses HLA-B*39:01. The assay is described as above.
The target in assay [8] is HLA-A*03:01. Described as above. Conditions: source organism: Giardia lamblia ATCC 50803.
For assay [9], the target named is HLA-A*26:01. Described as above. Conditions: source organism: Giardia lamblia ATCC 50803.
Assay [10] deals with HLA-B*44:02. The description is as above. Conditions: source organism: Giardia lamblia ATCC 50803.
Assay [11] deals with HLA-B*40:01. The assay is described as above. Conditions: source organism: Giardia lamblia ATCC 50803.
For assay [12], the target named is HLA-B*08:01. The assay is described as above. The note with it: source organism: Giardia lamblia ATCC 50803.
Assay [13] has as its target HLA-A*02:01. Described as above. The note with it: source organism: Giardia lamblia ATCC 50803.
The target of assay [14] is HLA-A*01:01. The description is as above. The note with it: source organism: Giardia lamblia ATCC 50803.
The target in assay [15] is HLA-A*69:01. Described as above. Conditions: source organism: Giardia lamblia ATCC 50803.
Assay [16] deals with HLA-A*31:01. The assay is described as above. The note with it: source organism: Giardia lamblia ATCC 50803.
For assay [17], the target named is HLA-A*11:01. The description is as above. The note with it: source organism: Giardia lamblia ATCC 50803.
The target of assay [18] is HLA-B*07:02. Described as above. Conditions: source organism: Giardia lamblia ATCC 50803.
Assay [19] addresses HLA-B*27:05. Described as above. Conditions: source organism: Giardia lamblia ATCC 50803.
Assay [20] deals with HLA-B*15:01. The assay is described as above. The note with it: source organism: Giardia lamblia ATCC 50803.
In assay [21] the target is HLA-A*24:03. The description is as above. Conditions: source organism: Limestone Canyon virus.
In assay [22] the target is HLA-A*02:12. The description is as above. Conditions: source organism: Limestone Canyon virus.
Assay [23] has as its target HLA-A*02:16. The description is as above. Conditions: source organism: Limestone Canyon virus.
The target of assay [24] is HLA-A*02:03. Described as above. Conditions: source organism: Limestone Canyon virus.
Assay [25] deals with HLA-A*02:11. The description is as above. The note with it: source organism: Limestone Canyon virus.
Assay [26] has as its target HLA-A*02:19. The assay is described as above. The note with it: source organism: Limestone Canyon virus.
Assay [27] addresses HLA-A*68:02. The description is as above. Conditions: source organism: Limestone Canyon virus.
Assay [28] deals with HLA-B*39:01. As to the kind of experiment: IEDB peptide-MHC binding, purified MHC/competitive/fluorescence; filed as Kd, often an IC50 or EC50 that approximates it; ≥ and ≤ were set here for values at or beyond the usual limits of such assays. Conditions: source organism: Four Corners hantavirus.
Assay [29] addresses HLA-A*03:01. The description is as above. The note with it: source organism: Four Corners hantavirus.
The target of assay [30] is HLA-B*15:17. The description is as above. Conditions: source organism: Four Corners hantavirus.
Assay [31] addresses HLA-A*26:01. The description is as above. The note with it: source organism: Four Corners hantavirus.
The target of assay [32] is HLA-B*27:03. The assay is described as above. Conditions: source organism: Four Corners hantavirus.
Assay [33] deals with HLA-B*51:01. Described as above. The note with it: source organism: Four Corners hantavirus.
Assay [34] deals with HLA-A*02:01. The assay is described as above. Conditions: source organism: Four Corners hantavirus.
Assay [35] has as its target HLA-A*69:01. The assay is described as above. The note with it: source organism: Four Corners hantavirus.
Assay [36] has as its target HLA-B*57:01. The description is as above. Conditions: source organism: Four Corners hantavirus.
Assay [37] deals with HLA-B*46:01. Described as above. The note with it: source organism: Four Corners hantavirus.
Assay [38] has as its target HLA-A*26:01. As to the kind of experiment: IEDB peptide-MHC binding, purified MHC/competitive/radioactivity; filed as Kd, often an IC50 or EC50 that approximates it; ≥ and ≤ were set here for values at or beyond the usual limits of such assays. The note with it: source organism: Dengue virus 1 Singapore/S275/1990.
For assay [39], the target named is HLA-A*24:02. The assay is described as above. Conditions: source organism: Dengue virus 1 Singapore/S275/1990.
In assay [40] the target is HLA-A*23:01. The description is as above. Conditions: source organism: Dengue virus 1 Singapore/S275/1990.
For assay [41], the target named is HLA-B*53:01. The assay is described as above.
Setting [42] is: source organism: Dengue virus 1 Brazil/97-11/1997.
The mark [43] stands for this setting: source organism: Dengue virus 3 Martinique/1243/1999.
The mark [44] stands for this setting: source organism: Listeria monocytogenes FSL N3-165.
[45] abbreviates: source organism: Escherichia coli O157:H7.
Setting [46] is: source organism: Giardia lamblia ATCC 50803.
Where [47] appears, read: source organism: Dengue virus 1 Singapore/S275/1990.
[48] abbreviates: source organism: Dengue virus 4 Philippines/H241/1956.
The mark [49] stands for this setting: source organism: Dengue virus 3 Sri Lanka/1266/2000.

One may read the Kd as a measure of binding affinity in units of concentration.

For VSSWEEVPYL, the Kd in assay [1] (setting [42]) came to 256 nM; in assay [2] (setting [42]) it was 12400 nM; in [3] (setting [42]), 384 nM.

With PTSYLDVDLH, the Kd in [3] (setting [43]) was at least 37400 nM.

As for WTRPRYIEI, the values for the Kd in assay [4] (source organism: Listeria monocytogenes), in [5] (setting [44]) and in assay [6] (setting [44]) were 270 nM, 429 nM and at least 20000 nM, respectively.

With FRGRGVFEL, the Kd in [7] (source organism: Influenza A virus (A/Moscow/10/1999(H3N2))) is 62.1 nM.

On to KSWPAAIDW, for which the Kd amounted to 1.3 nM in assay [4] (setting [45]), 1.5 nM in assay [5] (setting [45]) and 32 nM in [6] (setting [45]).

As to IARISALGF, the dissociation constant (Kd) in assay [4] (source organism: Brucella suis) was found to be 3.6 nM; in assay [5] (source organism: Brucella suis), 14000 nM; in assay [6] (source organism: Brucella suis 1330) it was 88 nM.

For the sequence SHSIPNGLL, the Kd in [7] (setting [46]) is 353 nM; in assay [8], at least 20000 nM; in [9] it was at least 20000 nM; in [10] it was at least 20000 nM; in assay [11] it was at least 20000 nM; in assay [5] (setting [46]), at least 20000 nM. Besides, the dissociation constant Kd in assay [12], in assay [13], in [14], in assay [15], in assay [16] and in assay [17] was at least 20000 nM each time. The dissociation constant (Kd) in assay [18], in [19] and in [20] was at least 20000 nM throughout.

As to IASSGMLWMA, the dissociation constant Kd worked out at 1020 nM in [1] (setting [43]) and 10400 nM in [3] (setting [43]).

Take LTSREVLLLT: the equilibrium dissociation constant (Kd) came to 409 nM in assay [1] (setting [42]) and 712 nM in assay [3] (setting [42]).

As for KLKKKSAFY, the Kd in [21], in [22], in assay [23], in assay [24], in assay [25] and in [26] was at least 20000 nM throughout. Also, the Kd is at least 20000 nM in assay [27]; at least 20000 nM in assay [28]; 45.1 nM in [29]; at least 20000 nM in [30]; at least 20000 nM in [31]; at least 20000 nM in assay [32]. The Kd in [33], in assay [34], in [35], in [36] and in assay [37] was at least 20000 nM in each case.

In the case of VTARWLWGF, the Kd in assay [38] turned out to be 7070 nM; in assay [39], 152 nM; in assay [1] (setting [47]), 38 nM; in assay [40], 134 nM; in [2] (setting [47]) it was 4000 nM; in [3] (setting [47]), 1.6 nM.

Turning to LSSRAKLALD, the dissociation constant (Kd) in assay [1] (setting [48]) amounted to 362 nM; in assay [3] (setting [48]), 7420 nM.

Regarding PASAWTLYAV, the equilibrium dissociation constant (Kd) in [3] (source organism: Dengue virus 2 Jamaica/1409/1983) was found to be 1110 nM.

In the case of ILIGFLVLW, the dissociation constant (Kd) in assay [1] (setting [48]) turned out to be 403 nM; in [3] (setting [48]) it was 1250 nM.

As for AVFQEEQGW, the equilibrium dissociation constant (Kd) in assay [3] (setting [48]) worked out at 34 nM.

Turning to YATQTVGPW, the equilibrium dissociation constant (Kd) was found to be 27.9 nM in assay [41] (setting [48]), 16.8 nM in [1] (setting [48]) and 605 nM in [3] (setting [48]).

Take AAVEDEEFW: the Kd in assay [41] (setting [49]) is 10.7 nM; in assay [1] (setting [49]) it was 4.41 nM; in assay [3] (setting [49]) it was 1100 nM.

Source of the values: the Immune Epitope Database (IEDB).
